Test results reported in patent publication US20160333072A1.

Legend:
[1] = target: human SLAMF6 (NTB-A) on human tumor infiltrating lymphocytes / T cells (human) (UniProt Q96DU3); test: cell-based or functional assay
[2] = target: 4-1BB (CD137) on human MART-1 reactive T cell clones (TIL 209) (human) (UniProt Q07011); test: cell-based or functional assay
Sequence of 4-1BB (CD137) on human MART-1 reactive T cell clones (TIL 209) (human) (Q07011 24-255 limits assumed): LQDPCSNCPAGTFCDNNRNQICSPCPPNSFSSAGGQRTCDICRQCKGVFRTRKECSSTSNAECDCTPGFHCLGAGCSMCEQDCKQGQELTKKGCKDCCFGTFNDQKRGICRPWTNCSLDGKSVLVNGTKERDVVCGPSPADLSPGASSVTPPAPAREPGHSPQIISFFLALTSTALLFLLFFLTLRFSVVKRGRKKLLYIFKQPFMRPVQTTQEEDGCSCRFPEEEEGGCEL

Sequence of seSLAMF6 (SEQ ID NO: 3; Leu 28-Lys 225 of Q96DU3 fused with a polyhistidine tag at the C-terminus) (Q96DU3 other isoform, or with tags, fused parts or gaps limits assumed): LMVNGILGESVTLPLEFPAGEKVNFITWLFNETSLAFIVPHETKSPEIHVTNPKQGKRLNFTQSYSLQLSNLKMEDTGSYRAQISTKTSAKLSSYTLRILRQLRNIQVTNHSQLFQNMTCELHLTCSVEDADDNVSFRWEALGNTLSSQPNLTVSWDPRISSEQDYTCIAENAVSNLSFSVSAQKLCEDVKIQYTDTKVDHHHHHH
Sequence of human SLAMF6 (NTB-A) on human tumor infiltrating lymphocytes / T cells (human) (Q96DU3 22-332): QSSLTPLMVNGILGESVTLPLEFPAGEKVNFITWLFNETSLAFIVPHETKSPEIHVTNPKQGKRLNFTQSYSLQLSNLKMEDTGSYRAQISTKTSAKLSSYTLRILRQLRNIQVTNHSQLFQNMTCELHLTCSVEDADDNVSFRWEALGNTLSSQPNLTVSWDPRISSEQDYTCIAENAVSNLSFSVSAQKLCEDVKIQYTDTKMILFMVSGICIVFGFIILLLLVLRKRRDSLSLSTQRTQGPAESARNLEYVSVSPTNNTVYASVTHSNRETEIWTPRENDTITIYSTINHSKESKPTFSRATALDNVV

| CD107a surface expression (lytic degranulation) of human TILs 209 after REP with seSLAMF6 50 µg/ml, co-culture with 526mel [1] | IFNγ secretion of TIL 209 co-cultured with mel624/4-1BBL in CM (mel624/moc: 4,120) [2] | IFNγ secretion of TIL 209 co-cultured with mel624/4-1BBL with BSA (mel624/moc: 3,160) [2] | Substance | ratio of cell death and apoptosis (PI / Annexin-V, flow cytometry) of melanoma-activated TILs 209 after IL-2 withdrawal, seSLAMF6 10 µg/ml [1] | ratio of cell death on Day 7 (PI / annexin-V), TILs expanded by REP-IL-2, then seSLAMF6 50 µg/ml [1] | ratio of cell death on Day 7 (PI / annexin-V), TILs expanded by REP-seSLAMF6, then seSLAMF6 50 µg/ml [1] |
| --- | --- | --- | --- | --- | --- | --- |
| 2 fold |  |  | seSLAMF6 (SEQ ID NO: 3; Leu 28-Lys 225 of Q96DU3 fused with a polyhistidine tag at the C-terminus) (from UniProt Q96DU3 28-225) (receptor) | 4% | 7 to 11% | 7 to 11% |
|  | 8600 pg/mL | 10500 pg/mL | 4-1BBL expressed on transfected 624mel melanoma cells (mel624/4-1BBL) (from UniProt P41273 1-254) (ligand) |  |  |  |
